The values below come from the nanobody polyreactivity screen of Harvey et al. (2022).

The nature of this data set: yeast display, Sf9 membrane polyspecificity reagent, FACS + sequencing; frameworks hold sequencing errors. An outline of the steps: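 Using colony PCR, genes from sorted yeast display clones were amplified, then sequenced on MiSeq at 2 × 250 and filtered by CDR length. The clones had been stained with 10% biotinylated, detergent-solubilized Sf9 membrane reagent for 1 hour at 4 °C and sorted by FACS into low and high (top ~1%) gates on anti-HA and streptavidin fluorescence. Polyreactivity labels come from the gate of origin.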
For the sequence “QVQLVESGGGLDQAGGSLRLSCAASGNIVYNGMGWYRQAPGKERELVAAIRGSGGRTYADSVKGRFTISRDNAKNTVYLQMNSLKPEDTAVYYCATRRWYAYGVYYWGQGTQVTVSS”, the “polyreactivity (PSR sort gate)” value is given as “high polyreactivity”.
As to “QVQLVESGGGLDQAGGSLRLSCAASGRIFPFNAMGWYRQAAGKERELVASIRSTGGNTYYADSVKGRFTISRDNAKNTVYLQMISLIPEDSAVYYWGQGTQVTVSS”, the “polyreactivity (PSR sort gate)” value is recorded as “low polyreactivity”.
In the case of “QVQLVESGGGLDQAGGSLRLSCAASGRIFSYYTMGWYRQAPGKERELVAAITWGGGSTSYADSVKGRFTISRDNAKNTVYLQMNSLKPEDTAVYYCAESPGANRMDYWGQGTQVTVSS”, the “polyreactivity (PSR sort gate)” value is reported as “low polyreactivity”.
The same measure for “QVQLVESGGGLDQAGGSLRLSCAASGRIIRYYAKGWYRQAPGKEREFVATISSGGSTNYADSVKGRFTISRDNAKNNVYLQMNSLKQEHTSVYYCNRVYSRHVWGQGTQVTVSS”: “high polyreactivity”; for “QVQLVESGGGLDQAGGSLRLSCAASGRILTGYAMGWYRQAPVKVRELVAAISNDTDSTHYADSVKGRFTISRDNAKKTVYLQMNSLKPEATAVYYCATDAPLQKRWRRFDYWGQGTHVTVSS”: “low polyreactivity”; for “QVQLVESGGGLDQAGGSLRLSCAASGRNYGLYAMGWYIQAPWKERELVAAITRTASTNYADSVNGRFTISRDNAKNTVYLQMNSLKPEDTAVYYCAAESWYPSDLWYTYEYWGQGTQVTVSS”: “low polyreactivity”.
As for “QVQLVESGGGLDQAGGSLRLSCAASGRTFDFYAMGWYRQAPGKEMELVAAITFSTGSTTYADSVKGRFTISRDNAKNTVYLQMNSLKPEDTAVYYCAADGDGWWWSYVDRYDYWGQGTQVTVSS”, the “polyreactivity (PSR sort gate)” value was “low polyreactivity”.
Then “QVQLVESGGGLDQAGGSLRLSCAASGRTFGYYARGWYRQAPGKERELVAAISYSGGTTYYADSVKGRYTISRDNAKNTVYLQMNSLKPEDTAVYYCATGGYSTRQSTFDYWGQGTQVTVSS”, with “low polyreactivity”.
Regarding “QVQLVESGGGLDQAGGSLRLSCAASGRTFIYNAMGWYRQAPGKEREFVAAITWSGATTRYADSVKGRFTISRDNAKNTVYLQMNSLKPEDTAVYYCAKGGFYYYGWRSSMDYWGQGTQVTVSS”, the “polyreactivity (PSR sort gate)” value was “high polyreactivity”.
Then “QVQLVESGGGLDQAGGSLRLSCAASGRTFWNYAMGWYRQAPGKERELVAVIRFSDGSTYYADSVKGRFTISRDNAKNTVYLQMNSLKPEDTAVYYCAAKGPRRWASGFDYWGQGTQVTVSS”, with “low polyreactivity”.
Then “QVQLVESGGGLDQAGGSLRLSCAASGRTFYANPMGWYRQAPGKQRELVAAIRRSGGRTYYADSVKGRFTISRDNAKNTVYLQMNSLKPEDTAVYYCATARYRAEMGYWGQGTQVTVSS”, with “high polyreactivity”; and “QVQLVESGGGLDQAGGSLRLSCAASGRTIRYYTMGWYRQAPGTERELVATIRRGGTTYYADSVKGRFTISRDNAKNTVYLQMNSLKPEDTAVYYCAKESLYQYDYWGQGTQVTVSS”, with “low polyreactivity”.
The same measure for “QVQLVESGGGLDQAGGSLRLSCAASGRTYYRYAMGWYRQAPGKESELVAAITWSGGSSYYADSVKGRFTTSRDNAKNTVYLQRNTLKPEDTAVYYCARRLYPYRPTAYDSWGQGTQVTVAS”: “low polyreactivity”; for “QVQLVESGGGLDQAGGSLRLSCAASGSIFFYNVLGWYRQAPGKERELVASISWRGASTYYADSVKGRFTISRDNAKNTVYLQMNSLKPEDTAVYYCAARFRSATRYQTGYYWGQGTQVTVSS”: “high polyreactivity”; for “QVQLVESGGGLDQAGGSLRLSCAASGSIFHWNVMGWYRQAPGKERKLVAVISSSDGSTNYADSVKGRFTISRDNAKNTVYLQMNCLKPEDTAVYYCAARGYAINYLWPFNYWGQGTQVTVSS”: “low polyreactivity”.
Turning to “QVQLVESGGGLDQAGGSLRLSCAASGSIFKYYVIGCYRQAPAKERELLAAISSGGSTYYADSVKGRFTISRDNAKNTVSLQLNSLKPEDTAVYFCAAKKAKSYYVSRYPRYYYWGQGTQVTVSS”, the “polyreactivity (PSR sort gate)” value is listed as “low polyreactivity”.
Consider “QVQLVESGGGLDQAGGSLRLSCAASGSIFPINAMGWYRQAPGKEREFDAAISSRGGSTYYADSVKGRFTISRDNAKNTVYFQMNSLKPEDTAVYYCAKYASVGYGRYPYDYWGQGTQVTVSS”, for which the “polyreactivity (PSR sort gate)” value is “high polyreactivity”.
Then “QVQLVESGGGLDQAGGSLRLSCAASGSIFQYYAMGWYRQAPGKEREFVAAITSDGSSTYYADSVKGRFTISRDNAKNTVYLQMNSLKPEDTAVYYCAAGWVGYRLPSMYYWGQGTQVTVSS”, with “high polyreactivity”; and “QVQLVESGGGLDQAGGSLRLSCAASGSIFTGNAMGLYRQAPGKERELVAAISSSGGSTYYADSVKGRFTISRDNAKNTVYLQMNSLKPEDTAVYYCAAYKYFLQYDYWGQGTQVTVSS”, with “low polyreactivity”.
Then “QVQLVESGGGLDQAGGSLRLSCAASGSIFYHNAMGWYRQAPGKERELVAAITGSGGSTYYADSVKWRFTISRDNAKNTFYLQMNSLKPEDTAVYYCAADYDYQYRYYYWGQGTQVTVSS”, with “low polyreactivity”; and “QVQLVESGGGLDQAGGSLRLSCAASGSIIWYYAMGWYRQAPGKESELVASISRRGGSTYYADSVKGRFTISRDNAKYTVYLQMNSLKPEDTAVYYCAAYSRTTGSTVQGTYDYWGQGTQVSVSS”, with “low polyreactivity”; and “QVQLVESGGGLDQAGGSLRLSCAASGSISVWYVMGWYRQAPGKERELVAAITRSGGSTFYADSLKGRFTISRDNAKNTVYLQMNSLKPEDTAVYYCASDGGVAWGYGDWGQGTQVTVSS”, with “low polyreactivity”.
The same measure for “QVQLVESGGGLDQAGGSLRLSCAASGSTFDVYAMGRYRQAPGKVRELVAAISRSGGSTYYADSVKGRFTISRDYAKNNVYLQMYSLKPEDTAVYYCNARLARWGSYEYNYWGQGTQVTVSS”: “low polyreactivity”; for “QVQLVESGGGLDQAGGSLRLSCAASGSTFLYYAMGWYRQAPGKEREFVARITTRVGRTYYADSVKGRFTISRDNAKNTVSLQMNSLKPEDTAVYYCAAVRISRTPRGLYEYWGQGTQVTVSS”: “high polyreactivity”; for “QVQLVESGGGLDQAGGSLRLSCAASGSTFPSYAMGWYRQAPGKERELVAAINSGGGTNYADSVKGRFTISRDNAKNTVYLQMNSLKPEDTAVYYCAKSRYDYTKTEGGYWGQGTQVTVSS”: “low polyreactivity”.
With “QVQLVESGGGLDQAGGSLRLSCAASGSTFRFNAMGWYRQAPGKEREFVAAIRFTGGSSYYSDSVKGRFTISRDNAKNTVYLQMNSLKPDDTAVYYCNNADEYSTVEYDYWGQGTLVTVSS”, the “polyreactivity (PSR sort gate)” value is “low polyreactivity”.
Then “QVQLVESGGGLDQAGGSLRLSCAASGSTFYGYAMGWYRPAPGKERELVAGISSGDSTNYADSVKGRFTISRDNAKNTVYLQMNSLKPEDTAVYYCARDYSRHKGDYWGQGTQVTVSS”, with “low polyreactivity”; and “QVQLVESGGGLDQAGGSLRLSCAASGSTVVRYAMGWYRQAPGKEREFVATISRRGGSTYYADSVKGRFTISRDNAKNTVYLQMNSLKPEDTAVYYCAKQGEAALPYIYDHWGQGTQVTVSS”, with “low polyreactivity”.
Turning to “QVQLVESGGGLDQAGGSLRLSCAASGYIFGSYAMGWYRQAPGKERELVAAITISGGRTYYADSVKGRFTISRDNAKNTVYLQMNSLLPEDTAVYYCAKDGERSRNGRIHYDYWGQGTKVTVSS”, the “polyreactivity (PSR sort gate)” value was “low polyreactivity”.
Then “QVQLVESGGGLDQAGGSLRLSCAASGYTYGYYAMGWYRQAPGKERELVATISYSGGTTYYADSVRGRFTISRDNAKNTVYLQMNSLKPEDTAVYYCNARGYKRLYGYWVQGTQVTVSS”, with “high polyreactivity”; and “QVQLVESGGGLDQAGGSLRLSCADSGFTSDGYAKGSYTQAPGKEREFVADINSDGSTNYADSVKARFTISRDNAKNTVYLQLNSLIPEDSAVYYCAKDQAAYYLIPWYPLHDYWGQGTQVTLSS”, with “low polyreactivity”.
Then “QVQLVESGGGLDQAGGSLRLSCASSGRIFRYNARGWYRQAPGKERELVAAITSGTGTNYADSVKGRFTISRDNAKNTVYLQMNRLTPEETAVYYCAVDYGYWRDSMGLGVFDYWGQGTQVTVSS”, with “low polyreactivity”.
Then “QVQLVESGGGLDQAGGSLRLSCDASGFIFVRYAMGWSRQAPGKERELVAGINSGGSTSYADSVKGRFTISRDNAKNTVYLQMNSLKPEDSAVYYCNADVYVGYEYEYWGQGTQVTVSS”, with “low polyreactivity”; and “QVQLVESGGGLDQAGGSLRLSCPASGRIFPINAMGRYRQAPGKERELVAAISYSRGSTYYADSVKGRFTISRDNAKNTVYLQMNSLKPEDTAVYYCNARYPYSYYHRYYYWGQGTQVSVSS”, with “high polyreactivity”; and “QVQLVESGGGLDQAGGSLRLSCVASGSIFRGNAMGWYRQAPGKERELVASISKGGGSTYYADSVKGRFIISRDNAKNTVYLQMNSLKPEDTAVYYCNAQFYNSGWSFKYYYWGQGTQVTVSS”, with “low polyreactivity”.
For the sequence “QVQLVESGGGLDQAGGSLRLSSAASGFTFRRNAMGWYRQAPGTERELVASITQRGGSTYYADSVKGRFTISRDNAKNTVYLQMNSLKPEATAVYYCAAGPTSRRWYDYWGQGTEVTVSS”, the “polyreactivity (PSR sort gate)” value is recorded as “high polyreactivity”.
The same measure for “QVQLVESGGGLDQAGGSLRLSSAASGITFYGYDMGWYRQAPGKARELVAAITSDGITNYADSVKGRFTFSRDNAKNTVYLHMNSLKPEDTAVYYCAADLSFYRRYEWYYYWGQGTQVTVSS”: “low polyreactivity”; for “QVQLVESGGGLDQAGGSLRLSWAASGSIFTIYAMGWYRQAPGKERELVAAISRRGGSTYYADSVKGRFTISRDNSKNTVYLQMNSLKPEDTAVYYCNADVAPGIFYGYDCWGQGTQVTVSS”: “low polyreactivity”; for “QVQLVESGGGLDQAGGSLRLSWAASGSTFTINVMGWYRQAPGKERELVAAINGGGRTNYADSVKGRFTISRDNAKNTVYLQMNSLKPEDTAVYYCAADGLSNVRQMDFWGQGTQVTVSS”: “low polyreactivity”.
For “QVQLVESGGGLDQAGGSLRLTCAASGFTFQVYAMGWYRQAPGKERELVADITSGTSTNYADSVKGRFTSSRDNAKNTVYLQMNSLKPEDTAVYYCANVYTYKSFDYWGQGTQVTVSS”, the “polyreactivity (PSR sort gate)” value is “low polyreactivity”.
Then “QVQLVESGGGLDQAGGSLRLTCAASGRIISGNAMGWYRQAPGKERELVAAISWSGGSTYYADSVKWRFTISRDNEKNTVYLHMNSLQPEDSAVYYCNAPGYRRYGSRMGYCGQGTQVTVSS”, with “high polyreactivity”.
